The text below walks through data of US9340596.

Among the targets are death receptor; αVβ3 integrin (human) (UniProt P06756); αVβ5 integrin (human) (UniProt P06756).
What all share (assay): cell-based or functional assay

Sequence of αVβ5 integrin (human) (P06756 31-1048, chain 1 of 2): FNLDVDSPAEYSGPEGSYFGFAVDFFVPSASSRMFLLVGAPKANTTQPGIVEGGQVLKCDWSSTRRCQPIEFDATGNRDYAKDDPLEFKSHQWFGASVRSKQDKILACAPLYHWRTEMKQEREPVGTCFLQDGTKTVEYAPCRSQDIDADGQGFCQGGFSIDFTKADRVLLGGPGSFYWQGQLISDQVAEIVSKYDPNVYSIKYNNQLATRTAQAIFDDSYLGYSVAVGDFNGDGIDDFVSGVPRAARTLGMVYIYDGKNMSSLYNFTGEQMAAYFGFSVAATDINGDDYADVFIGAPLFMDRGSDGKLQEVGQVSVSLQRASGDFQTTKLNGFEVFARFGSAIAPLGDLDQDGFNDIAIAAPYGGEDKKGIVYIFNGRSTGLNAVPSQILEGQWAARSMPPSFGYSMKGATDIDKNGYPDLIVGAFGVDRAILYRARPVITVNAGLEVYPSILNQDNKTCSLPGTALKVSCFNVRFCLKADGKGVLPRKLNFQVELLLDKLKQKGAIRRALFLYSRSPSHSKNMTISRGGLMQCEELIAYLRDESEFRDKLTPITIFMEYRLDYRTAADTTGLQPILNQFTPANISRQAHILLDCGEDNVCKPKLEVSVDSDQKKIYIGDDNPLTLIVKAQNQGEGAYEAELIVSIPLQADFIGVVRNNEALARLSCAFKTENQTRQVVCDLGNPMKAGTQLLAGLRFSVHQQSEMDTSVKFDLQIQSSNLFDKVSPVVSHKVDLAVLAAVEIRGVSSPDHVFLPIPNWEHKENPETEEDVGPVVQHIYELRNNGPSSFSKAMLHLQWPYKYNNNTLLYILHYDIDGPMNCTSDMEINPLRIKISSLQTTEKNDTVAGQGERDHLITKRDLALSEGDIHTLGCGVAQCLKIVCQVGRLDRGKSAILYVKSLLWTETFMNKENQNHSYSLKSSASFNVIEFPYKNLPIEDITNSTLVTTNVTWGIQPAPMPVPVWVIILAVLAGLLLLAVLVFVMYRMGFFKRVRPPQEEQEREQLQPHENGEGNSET
Sequence of αVβ5 integrin (human) (P18084 24-799, chain 2 of 2, further chain): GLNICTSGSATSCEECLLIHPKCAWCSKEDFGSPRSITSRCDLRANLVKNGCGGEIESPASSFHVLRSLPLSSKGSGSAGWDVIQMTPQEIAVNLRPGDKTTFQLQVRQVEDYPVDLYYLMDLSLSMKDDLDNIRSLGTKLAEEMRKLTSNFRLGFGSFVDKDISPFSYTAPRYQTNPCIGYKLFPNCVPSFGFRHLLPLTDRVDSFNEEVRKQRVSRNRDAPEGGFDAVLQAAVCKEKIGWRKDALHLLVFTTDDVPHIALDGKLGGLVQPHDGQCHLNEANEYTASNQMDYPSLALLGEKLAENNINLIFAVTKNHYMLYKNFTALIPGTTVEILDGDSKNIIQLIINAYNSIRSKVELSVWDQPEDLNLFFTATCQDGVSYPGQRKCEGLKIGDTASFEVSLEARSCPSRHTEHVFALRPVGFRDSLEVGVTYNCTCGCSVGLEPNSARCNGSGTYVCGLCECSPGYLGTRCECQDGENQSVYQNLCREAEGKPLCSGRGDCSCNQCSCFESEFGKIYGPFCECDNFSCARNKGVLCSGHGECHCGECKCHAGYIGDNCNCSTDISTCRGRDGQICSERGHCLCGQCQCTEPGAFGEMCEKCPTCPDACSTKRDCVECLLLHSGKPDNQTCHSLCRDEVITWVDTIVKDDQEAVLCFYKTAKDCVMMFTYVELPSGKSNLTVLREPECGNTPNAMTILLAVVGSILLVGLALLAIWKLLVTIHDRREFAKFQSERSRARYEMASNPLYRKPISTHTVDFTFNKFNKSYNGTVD
Sequence of αVβ3 integrin (human) (P06756 31-1048, chain 1 of 2): as the sequence (P06756 31-1048, chain 1 of 2) above
Sequence of αVβ3 integrin (human) (P05106 27-788, chain 2 of 2, further chain): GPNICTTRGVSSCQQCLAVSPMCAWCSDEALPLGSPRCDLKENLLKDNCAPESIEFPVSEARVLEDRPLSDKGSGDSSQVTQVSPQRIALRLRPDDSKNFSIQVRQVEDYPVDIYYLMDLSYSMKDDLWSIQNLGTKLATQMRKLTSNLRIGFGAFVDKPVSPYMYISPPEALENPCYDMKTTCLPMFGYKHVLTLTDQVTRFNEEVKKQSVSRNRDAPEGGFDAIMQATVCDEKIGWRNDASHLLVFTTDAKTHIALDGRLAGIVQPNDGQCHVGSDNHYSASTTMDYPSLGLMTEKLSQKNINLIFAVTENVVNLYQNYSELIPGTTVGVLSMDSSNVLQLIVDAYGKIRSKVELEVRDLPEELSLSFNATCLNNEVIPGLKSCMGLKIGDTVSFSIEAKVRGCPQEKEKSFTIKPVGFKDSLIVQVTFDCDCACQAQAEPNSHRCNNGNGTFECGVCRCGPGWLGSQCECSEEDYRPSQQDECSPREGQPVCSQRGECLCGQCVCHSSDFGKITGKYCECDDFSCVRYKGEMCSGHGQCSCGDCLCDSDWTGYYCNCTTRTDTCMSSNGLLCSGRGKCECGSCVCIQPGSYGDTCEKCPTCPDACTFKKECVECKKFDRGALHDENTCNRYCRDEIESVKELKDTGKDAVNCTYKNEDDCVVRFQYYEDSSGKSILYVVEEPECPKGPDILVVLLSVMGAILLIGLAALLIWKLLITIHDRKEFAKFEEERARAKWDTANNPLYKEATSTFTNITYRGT

In the experiment with death receptor, “RGD-L-TRAIL (human TRAIL variant: short peptide …, connecting peptide of five glycines, TRAIL) (from UniProt P50591 114-281)” registered an apoptosis rate of COLO-205 cells at 2.43 ng/ml (Annexin V-FITC and PI double staining) of 87.5%; a caspase-8 and caspase-3 activity in Jurkat cells after two hours, against the same dose of wild-type TRAIL of 2.5 times; a medial lethal dose on COLO-205 cells of 0.37 ng/mL; a medial lethal dose on Jurkat cells of 0.41 ng/mL. Further, in the experiment with death receptor, the medial lethal dose on MDA-MB-231 cells stood at 1.2 ng/mL. In the experiment with αVβ3 integrin (human), the fold reduction of the medial lethal dose against wild-type TRAIL, COLO-205 cells came out at 9.5 times; the fold reduction of the medial lethal dose against wild-type TRAIL, Jurkat cells was 16.3 times; the fold reduction of the medial lethal dose against wild-type TRAIL, MDA-MB-231 cells was 1.9 times. In the experiment with αVβ5 integrin (human), this substance had a fold reduction of the medial lethal dose against wild-type TRAIL, COLO-205 cells of 9.5 times; a fold reduction of the medial lethal dose against wild-type TRAIL, Jurkat cells of 16.3 times; a fold reduction of the medial lethal dose against wild-type TRAIL, MDA-MB-231 cells of 1.9 times.
